# According to patent US8871205B2, “Methods and compositions for the treatment of immune disorders” (The University of North Carolina at Chapel Hill, priority 2009, dated 2014):
# B1: Sema6A: human Sema6A-Fc (1146-S6, R&D); chimeric protein of human IgG1 Fc fragment fused to Sema6A (protein)
# chain: GFPEDSEPISISHGNYTKQYPVFVGHKPGRNTTQRHRLDIQMIMIMNGTLYIAARDHIYTVDIDTSHTEEIYCSKKLTWKSRQADVDTCRMKGKHKDECHNFIKVLLKKNDDALFVCGTNAFNPSCRNYKMDTLEPFGDEFSGMARCPYDAKHANVALFADGKLYSATVTDFLAIDAVIYRSLGESPTLRTVKHDSKWLKEPYFVQAVDYGDYIYFFFREIAVEYNTMGKVVFPRVAQVCKNDMGGSQRVLEKQWTSFLKARLNCSVPGDSHFYFNILQAVTDVIRINGRDVVLATFSTPYNSIPGSAVCAYDMLDIASVFTGRFKEQKSPDSTWTPVPDERVPKPRPGCCAGSSSLERYATSNEFPDDTLNFIKTHPLMDEAVPSIFNRPWFLRTMVRYRLTKIAVDTAAGPYQNHTVVFLGSEKGIILKFLARIGNSGFLNDSLFLEEMSVYNSEKCSYDGVEDKRIMGMQLDRASSSLYVAFSTCVIKVPLGRCERHGKCKKTCIASRDPYCGWIKEGGACSHLSPNSRLTFEQDIERGNTDGLGDCHNSFVALNGHSSSLLPSTTTSDSTAQEGYESRGGMLDWKHLLDSPDSTDPLGAVSSHNHQDKKGVIRESYLKGHDQLVPVT
# modifications: left off: a dimerising Fc or GST
# notes: human Sema6A-Fc (1146-S6, R&D); chimeric protein of human IgG1 Fc fragment fused to Sema6A
# Test system: WT or Plxna4−/− peritoneal macrophages
# Test: TNF-α and IL-6 production (RT-PCR, ELISA) in peritoneal macrophages stimulated with Sema3A-Fc or Sema6A-Fc in the absence or presence of LPS
# Assay type: cell-based, mouse
# Details: semaphorin alone, absence of LPS; macrophages
# Description: Messenger RNA (FIG. 7A) or protein (FIG. 7B) levels of TNF-α and IL-6 were measured by RT-PCR and ELISA, respectively. The IgG Fc fragment (100 μg/ml) was used as a negative control. WT and Plxna4^−/− mice (n=7˜9 per group) were pretreated with either Sema3A-Fc or IgG Fc control proteins at a dosage of 25 μg per kg body weight 1 h prior to CLP procedure (FIG. 7C). Survival rate was monitored for 5 days. τP<0.05 compared with WT mice pretreated with Sema3A-Fc. WT mice (n=4 per group) were pretreated with either Sema3A-Fc or IgG Fc control proteins, followed by CLP surgery (FIG. 7D). Inflammatory cytokines in peritoneal lavage collected 4 h after CLP were determined by ELISA. * P<0.05 compared to peritoneal lavage from WT mice pretreated with Sema3A-Fc (FIG. 7E). […] Inflammatory cytokines in peritoneal lavage collected 4 h after CLP were determined by ELISA. *P<0.05 compared with peritoneal lavage from WT mice pretreated with Sema3A-Fc (FIG. 7G).
# Total peritoneal cells were harvested from the peritoneal cavities of naïve WT or Plxna4^−/− mice with two 10 ml cold sterile PBS wash. […] The remaining cells were thoroughly washed with PBS and counted in a hemocytometer. Cytospins were prepared and stained with Diff-Quik solutions, and the number of peritoneal macrophages was determined. […]
molecule,measurement,value
B1,TNF-α and IL-6 production,Neither Sema3A nor Sema6A alone induced
